Test [1] concerns the target AeCNMaR-1b (AAEL018316) (Aedes aegypti, UniProt A0A1S4G7J8). Put plainly: Receptor activation, aequorin luminescence in CHO-K1 aeq cells expressing AeCNMaR-1b. Format: cell-based. The following applies: CHO-K1 aeq cells, transient AeCNMaR-1b; luminescence over 10 s; 10 pM to 50 μM, quadruplicate; normalized to 50 µM AeCNMa; BSA assay media; read-out: EC50. An excerpt: The CNMa peptide was synthesized and HPLC purified (>90% purity) by Royobiotechs (Shanghai, China) based on the published sequence of the AeCNMa peptide sequence. Both the amidated (YMSLCHFKLCNMa) and the non-amidated (YMSLCHFKLCNM) were produced with a disulfide bridge between cysteines 5 and 10. The complete coding sequence of the two putative Ae. aegypti CNMa receptors (VectorBase genes AAEL024199 and AAEL018316, which we henceforth refer to as AeCNMaR-1a and AeCNMaR-1b, respectively) were commercially synthesized (Integrated DNA Technologies) and subsequently subcloned into a pcDNA3.1+ mammalian expression vector [24]. A Chinese hamster ovary cell line stably expressing the calcium-dependent bioluminescent protein aequorin (CHO-K1 aeq) was grown in Dulbecco’s modified eagles medium: nutrient F12 (DMEM:F12) media containing 10% heat-inactivated fetal bovine serum (FBS; Wisent, St. Bruno, QC, Canada), 200 μg/mL geneticin, and an antimycotic-antibiotic mixture as described previously. […]
Other Ae. aegypti peptides used in this study included “capability” (CAPA)-1 (GPTVGLFAFPRV-NH2), CAPA-2 (pQGLVPFPRV-NH2), AedaeCAPA-pyrokinin (PK) 1 (AGNSGANSGMWFGPRL-NH2), adipokinetic/corazonin-like peptide (ACP; pQVTFSRDWNA-NH2), adipokinetic hormone (AKH) (pQLTFTPSW-NH2), and corazonin (CRZ; pQTFQYSRGWTN-NH2). […] Single concentrations of the various peptides were loaded into individual wells of white 96-well luminescence plates (Greiner Bio-One, Frickenhausen, Germany) with each peptide concentration tested in quadruplicate. CHO-K1 aeq cells expressing either of the two AeCNMa receptors or mCherry were prepared for the functional assay, as described above, and injected into each well of the 96-well luminescence plates by an automated injector unit integrated with the Synergy 2 Multi-Mode Microplate Reader (BioTek, Winooski, VT, USA). The kinetic luminescent response was measured for 10 s immediately following the application of the cells into the wells containing the different peptide treatments or the negative (i.e., BSA media alone) or positive (i.e., 50 μM ATP) controls as described previously. Data was assembled in Microsoft Excel and then analyzed in GraphPad Prism 7.02 (GraphPad Software, San Diego, CA, USA) where the dose–response curves from multiple biological replicates were used to determine the half maximal effective concentrations (EC50).

In test [2] the target is AeCNMaR-1a (AAEL024199) (Aedes aegypti, UniProt A0A6I8U3V2). Put plainly: Receptor activation, aequorin luminescence in CHO-K1 aeq cells expressing AeCNMaR-1a. Format: cell-based. The settings on record: CHO-K1 aeq cells, transient AeCNMaR-1a; luminescence over 10 s; 10 pM to 50 μM, quadruplicate; normalized to 50 µM AeCNMa; BSA assay media; read-out: EC50. From the text: The CNMa peptide was synthesized and HPLC purified (>90% purity) by Royobiotechs (Shanghai, China) based on the published sequence of the AeCNMa peptide sequence. Both the amidated (YMSLCHFKLCNMa) and the non-amidated (YMSLCHFKLCNM) were produced with a disulfide bridge between cysteines 5 and 10. The complete coding sequence of the two putative Ae. aegypti CNMa receptors (VectorBase genes AAEL024199 and AAEL018316, which we henceforth refer to as AeCNMaR-1a and AeCNMaR-1b, respectively) were commercially synthesized (Integrated DNA Technologies) and subsequently subcloned into a pcDNA3.1+ mammalian expression vector [24]. A Chinese hamster ovary cell line stably expressing the calcium-dependent bioluminescent protein aequorin (CHO-K1 aeq) was grown in Dulbecco’s modified eagles medium: nutrient F12 (DMEM:F12) media containing 10% heat-inactivated fetal bovine serum (FBS; Wisent, St. Bruno, QC, Canada), 200 μg/mL geneticin, and an antimycotic-antibiotic mixture as described previously. When cells reached 80–90% confluency, they were transfected using Lipofectamine 3000 transfection reagent following manufacturer recommendations (Life Technologies, Burlington, ON, Canada) to transiently express a mammalian construct in pcDNA3.1+ containing either of the two candidate CNMa receptors or mCherry (pcDNA3.1+ mCherry was a gift from Scott Gradia, Addgene plasmid #30125), the latter of which served as a negative control for the receptor functional assay. After 48 h following transfection, CHO-K1 aeq cells were harvested by dislodging from culture flasks using Dulbecco’s PBS containing EDTA and subsequently resuspended in receptor assay media.
Chain of AeCNMaR-1a (AAEL024199) (A0A6I8U3V2 entry or part of it): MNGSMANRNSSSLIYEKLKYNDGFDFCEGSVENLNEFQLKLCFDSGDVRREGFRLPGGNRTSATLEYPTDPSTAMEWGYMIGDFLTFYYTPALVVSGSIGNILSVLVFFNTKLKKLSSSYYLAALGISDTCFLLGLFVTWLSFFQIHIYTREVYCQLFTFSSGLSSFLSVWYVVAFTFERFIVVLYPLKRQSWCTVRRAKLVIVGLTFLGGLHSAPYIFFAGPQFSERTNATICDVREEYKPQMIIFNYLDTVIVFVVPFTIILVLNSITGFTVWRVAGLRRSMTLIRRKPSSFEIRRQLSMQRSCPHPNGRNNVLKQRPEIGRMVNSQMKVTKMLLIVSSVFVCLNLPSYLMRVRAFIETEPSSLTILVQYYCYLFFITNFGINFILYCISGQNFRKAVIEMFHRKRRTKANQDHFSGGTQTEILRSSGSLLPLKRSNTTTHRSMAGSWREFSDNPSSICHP
Other Ae. aegypti peptides used in this study included “capability” (CAPA)-1 (GPTVGLFAFPRV-NH2), CAPA-2 (pQGLVPFPRV-NH2), AedaeCAPA-pyrokinin (PK) 1 (AGNSGANSGMWFGPRL-NH2), adipokinetic/corazonin-like peptide (ACP; pQVTFSRDWNA-NH2), adipokinetic hormone (AKH) (pQLTFTPSW-NH2), and corazonin (CRZ; pQTFQYSRGWTN-NH2). Serial dilutions of the peptide stocks were prepared in bovine serum albumin (BSA) assay media (DMEM:F12 media + 0.1% BSA + 1× antibiotic-antimycotic) to test concentrations ranging from 10 pM to 50 μM. Single concentrations of the various peptides were loaded into individual wells of white 96-well luminescence plates (Greiner Bio-One, Frickenhausen, Germany) with each peptide concentration tested in quadruplicate. CHO-K1 aeq cells expressing either of the two AeCNMa receptors or mCherry were prepared for the functional assay, as described above, and injected into each well of the 96-well luminescence plates by an automated injector unit integrated with the Synergy 2 Multi-Mode Microplate Reader (BioTek, Winooski, VT, USA). The kinetic luminescent response was measured for 10 s immediately following the application of the cells into the wells containing the different peptide treatments or the negative (i.e., BSA media alone) or positive (i.e., 50 μM ATP) controls as described previously. Data was assembled in Microsoft Excel and then analyzed in GraphPad Prism 7.02 (GraphPad Software, San Diego, CA, USA) where the dose–response curves from multiple biological replicates were used to determine the half maximal effective concentrations (EC50).

Positions of bridges follow the written chain, without caps; N, C: chain ends. No end group written: not given here.

Chain of AeCNMaR-1b (AAEL018316) (A0A1S4G7J8 entry or part of it): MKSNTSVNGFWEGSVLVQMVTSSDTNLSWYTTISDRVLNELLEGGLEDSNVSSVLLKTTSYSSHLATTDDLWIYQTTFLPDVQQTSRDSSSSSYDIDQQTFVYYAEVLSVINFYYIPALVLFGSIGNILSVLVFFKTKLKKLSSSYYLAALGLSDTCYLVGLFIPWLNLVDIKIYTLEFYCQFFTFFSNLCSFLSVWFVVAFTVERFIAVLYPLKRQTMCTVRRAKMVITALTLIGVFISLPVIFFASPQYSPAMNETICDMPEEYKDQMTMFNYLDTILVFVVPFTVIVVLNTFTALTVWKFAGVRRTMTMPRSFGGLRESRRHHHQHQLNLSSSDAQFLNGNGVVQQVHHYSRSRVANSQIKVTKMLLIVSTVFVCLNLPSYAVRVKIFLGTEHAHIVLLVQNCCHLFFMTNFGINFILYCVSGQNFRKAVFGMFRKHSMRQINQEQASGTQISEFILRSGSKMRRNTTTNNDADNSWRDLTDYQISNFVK

Turning to “YMSLCHFKLCNMa (disulfide) (YMSLCHFKLCNM-NH2; disulfide 5-10; N-terminus assumed; SMILES CSCC[C@H](NC(=O)[C@H](CC(N)=O)NC(=O)[C@@H]1CSSC[C@H](NC(=O)[C@H](CC(C)C)NC(=O)[C@H](CO)NC(=O)[C@H](CCSC)NC(=O)[C@@H](N)Cc2ccc(O)cc2)C(=O)N[C@@H](Cc2c[nH]cn2)C(=O)N[C@@H](Cc2ccccc2)C(=O)N[C@@H](CCCCN)C(=O)N[C@@H](CC(C)C)C(=O)N1)C(N)=O) [AeCNMa, Ae. aegypti CNMa peptide, amidated, HPLC purified (>90% purity)]”, the EC50 (commonly the concentration at which the effect is half-maximal) in test [1] came out at 51.8 nM; in test [2] it was 5.17 nM.

The values are drawn from paper PMC8955854, “The Peptide Hormone CNMa Influences Egg Production in the Mosquito Aedes aegypti” (Insects, 2022).
